B1: human eIF2β 53–136 (domain or fragment, UniProt P20042 53-136, looked up)
chain: DLEADEEDTRKKDASDDLDDLNFFNQKKKKKKTKKIFDIDEAEEGVKDLKIESDVQEPTEPEDDLDIMLGNKKKKKKNVKFPDE
notes: human eIF2 beta subunit, residues 53-136, carrying two K-boxes; also called eIF2β_(53–135)
B2: polyhistidine-tagged human 5MP1 C-terminal domain (aa. 245–419) (domain or fragment, UniProt Q9Y6E2 245-419, looked up)
chain: FLRVQQSLGTRKELQKELQERLSQECPIKEVVLYVKEEMKRNDLPETAVIGLLWTCIMNAVEWNKKEELVAEQALKHLKQYAPLLAVFSSQGQSELILLQKVQEYCYDNIHFMKAFQKIVVLFYKADVLSEEAILKWYKEAHVAKGKSVFLDQMKKFVEWLQNAEEESESEGEEN
notes: human eIF5-mimic protein 1 (5MP1, BZW2), CTD, aa; 245-419; Preparation of the construct is described in the Supplementary file; also called 5MP1-CTD; CTD
B3: polyhistidine-tagged full-length human 5MP1 (natural protein, UniProt Q9Y6E2 1-419, looked up)
chain: MNKHQKPVLTGQRFKTRKRDEKEKFEPTVFRDTLVQGLNEAGDDLEAVAKFLDSTGSRLDYRRYADTLFDILVAGSMLAPGGTRIDDGDKTKMTNHCVFSANEDHETIRNYAQVFNKLIRRYKYLEKAFEDEMKKLLLFLKAFSETEQTKLAMLSGILLGNGTLPATILTSLFTDSLVKEGIAASFAVKLFKAWMAEKDANSVTSSLRKANLDKRLLELFPVNRQSVDHFAKYFTDAGLKELSDFLRVQQSLGTRKELQKELQERLSQECPIKEVVLYVKEEMKRNDLPETAVIGLLWTCIMNAVEWNKKEELVAEQALKHLKQYAPLLAVFSSQGQSELILLQKVQEYCYDNIHFMKAFQKIVVLFYKADVLSEEAILKWYKEAHVAKGKSVFLDQMKKFVEWLQNAEEESESEGEEN
notes: human eIF5-mimic protein 1 (5MP1, BZW2), full length; Preparation of the construct is described in the Supplementary file; also called BZW2; eIF5-mimic protein 1

Assays:
Assay in all cases: ITC; a solution of eIF2β 53–136 injected with human 5MP1 constructs; performed as described previously (16)
Conditions in all cases: both partners purified
[1] = target: B3
[2] = target: B2
human eIF2β 53–136 = target: B1

Row | Binder | Kd [1] [µM] | Kd [2] [µM] | stoichiometry N (human eIF2β 53–136)
1 | B1 | ~2 | ~5 | 
2 | B2 |  |  | 0.5
3 | B3 |  |  | 1

Source: publication PMC4176352, “Essential role of eIF5-mimic protein in animal development is linked to control of ATF4 expression” (Nucleic Acids Research, 2014)
